Source: paper PMC6188894

Each substance was assayed against VN-TFIIEβ (TFIIEβ fused to the N-terminal fragment of Venus, pCS2VNm9) (Drosophila) (assay: split reporter (BiFC, NanoBiT); BiFC with split Venus (VC and VN fusions) in co-transfected HEK293 cells, read 48 h after transfection by confocal microscopy; percent = Venus-fluorescent cells in one hundred mCherry-positive cells, three independent experiments). Details: not given.
Chain of VN-TFIIEβ (TFIIEβ fused to the N-terminal fragment of Venus, pCS2VNm9) (Drosophila) (O96881 entry or part of it): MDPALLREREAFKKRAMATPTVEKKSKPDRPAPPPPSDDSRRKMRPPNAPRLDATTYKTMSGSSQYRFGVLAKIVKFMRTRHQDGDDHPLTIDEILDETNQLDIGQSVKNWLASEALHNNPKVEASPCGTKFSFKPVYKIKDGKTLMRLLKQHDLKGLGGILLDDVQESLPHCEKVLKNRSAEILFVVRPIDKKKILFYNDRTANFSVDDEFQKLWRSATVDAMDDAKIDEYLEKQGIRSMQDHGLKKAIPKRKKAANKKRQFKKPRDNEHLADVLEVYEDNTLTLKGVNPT

percent of transfected (mCherry-positive) cells with BiFC signal [%] | Substance
78 | VC-Antp (wild-type Antennapedia fused to the C-terminal fragment of Venus, pCS2VC155) (from UniProt P02833 1-378) (natural protein)
13 | VC-Antp^I32L-H36R (natural protein)

Further lines, the substance ahead of its results:

Substance | percent of transfected (mCherry-positive) cells with BiFC signal [%]
VC-AntpHD (Antp homeodomain construct fused to the C-terminal fragment of Venus, pCS2VC155) (domain or fragment) | 75
VC-Antp^AAAA (Antp with the YPWM motif replaced with alanines) (from UniProt P02833 1-378) (natural protein) | 76
VC-AntpΔH1 (Antp with helix 1 of the HD deleted) (from UniProt P02833 1-378) (natural protein) | 74
VC-AntpΔH1-2 (Antp with helices 1 and 2 of the HD deleted) (from UniProt P02833 1-378) (natural protein) | 15
VC-AntpΔHD (Antp with the homeodomain deleted) (from UniProt P02833 1-378) (natural protein) | 26

The substances below were run against EXD (BiFC partner in HEK293 cells) (Drosophila) (UniProt P40427) in the same assay as above. Details: not given.
Chain of UniProt P40427 (P40427 whole entry): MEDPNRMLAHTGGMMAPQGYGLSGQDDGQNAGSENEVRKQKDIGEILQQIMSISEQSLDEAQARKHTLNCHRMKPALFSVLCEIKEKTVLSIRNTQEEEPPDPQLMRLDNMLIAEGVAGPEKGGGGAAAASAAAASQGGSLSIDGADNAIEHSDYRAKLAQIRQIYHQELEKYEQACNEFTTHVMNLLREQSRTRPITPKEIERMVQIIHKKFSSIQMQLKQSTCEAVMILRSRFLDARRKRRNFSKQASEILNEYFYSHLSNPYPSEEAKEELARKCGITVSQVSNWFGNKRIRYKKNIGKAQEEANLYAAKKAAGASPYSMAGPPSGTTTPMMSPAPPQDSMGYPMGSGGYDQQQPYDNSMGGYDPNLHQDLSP

percent of transfected (mCherry-positive) cells with BiFC signal [%] | Substance
79 | VC-Antp^I32A-H36A (in HEK293 cells) (natural protein)

Each substance was assayed against VN-TFIIEβ (TFIIEβ fused to the N-terminal fragment of Venus, pCS2VNm9) (assay: BiFC). Details: cell culture; pCAG-Cherry co-transfected as a control.

response [%] | Substance
32 | VC-Antp (wild-type Antennapedia fused to the C-terminal fragment of Venus, pCS2VC155) (from UniProt P02833) H36R
29 | VC-Antp (wild-type Antennapedia fused to the C-terminal fragment of Venus, pCS2VC155) (from UniProt P02833) I32A
31 | VC-Antp (wild-type Antennapedia fused to the C-terminal fragment of Venus, pCS2VC155) (from UniProt P02833) I32L
